For one molecule, Kd results are on record in publication PMC9813255 (2023).

Assay [1] addresses T1, full-length human PQBP5 (His-tag fusion protein) (human, UniProt Q9BSC4-1 1-688).
T1 chain: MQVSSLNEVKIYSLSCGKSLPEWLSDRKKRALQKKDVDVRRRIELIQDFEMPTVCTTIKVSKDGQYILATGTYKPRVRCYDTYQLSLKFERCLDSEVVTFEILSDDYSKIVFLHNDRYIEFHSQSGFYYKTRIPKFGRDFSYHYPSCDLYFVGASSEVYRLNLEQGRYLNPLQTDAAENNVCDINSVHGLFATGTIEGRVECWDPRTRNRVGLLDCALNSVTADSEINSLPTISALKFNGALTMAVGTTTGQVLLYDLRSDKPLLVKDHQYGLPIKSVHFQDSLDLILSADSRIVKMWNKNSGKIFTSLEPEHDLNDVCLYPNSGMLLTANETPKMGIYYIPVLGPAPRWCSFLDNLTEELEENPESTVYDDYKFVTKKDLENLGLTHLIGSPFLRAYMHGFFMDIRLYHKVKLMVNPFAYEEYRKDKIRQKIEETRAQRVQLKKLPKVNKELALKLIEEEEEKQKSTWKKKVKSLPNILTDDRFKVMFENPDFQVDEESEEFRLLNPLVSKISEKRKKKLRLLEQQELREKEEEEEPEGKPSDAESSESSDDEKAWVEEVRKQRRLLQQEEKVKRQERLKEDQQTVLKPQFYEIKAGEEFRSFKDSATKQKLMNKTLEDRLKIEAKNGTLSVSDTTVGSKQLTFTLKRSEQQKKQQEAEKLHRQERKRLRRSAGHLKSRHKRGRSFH
Put plainly: SPR; fibrillarin analyte, PQBP5 immobilized.

The target of assay [2] is human nucleolin (His-tag fusion protein) (human, UniProt P19338 1-710). Put plainly: SPR; fibrillarin analyte, nucleolin immobilized.
Sequence of human nucleolin (His-tag fusion protein) (P19338 whole entry, the tested form may be a part): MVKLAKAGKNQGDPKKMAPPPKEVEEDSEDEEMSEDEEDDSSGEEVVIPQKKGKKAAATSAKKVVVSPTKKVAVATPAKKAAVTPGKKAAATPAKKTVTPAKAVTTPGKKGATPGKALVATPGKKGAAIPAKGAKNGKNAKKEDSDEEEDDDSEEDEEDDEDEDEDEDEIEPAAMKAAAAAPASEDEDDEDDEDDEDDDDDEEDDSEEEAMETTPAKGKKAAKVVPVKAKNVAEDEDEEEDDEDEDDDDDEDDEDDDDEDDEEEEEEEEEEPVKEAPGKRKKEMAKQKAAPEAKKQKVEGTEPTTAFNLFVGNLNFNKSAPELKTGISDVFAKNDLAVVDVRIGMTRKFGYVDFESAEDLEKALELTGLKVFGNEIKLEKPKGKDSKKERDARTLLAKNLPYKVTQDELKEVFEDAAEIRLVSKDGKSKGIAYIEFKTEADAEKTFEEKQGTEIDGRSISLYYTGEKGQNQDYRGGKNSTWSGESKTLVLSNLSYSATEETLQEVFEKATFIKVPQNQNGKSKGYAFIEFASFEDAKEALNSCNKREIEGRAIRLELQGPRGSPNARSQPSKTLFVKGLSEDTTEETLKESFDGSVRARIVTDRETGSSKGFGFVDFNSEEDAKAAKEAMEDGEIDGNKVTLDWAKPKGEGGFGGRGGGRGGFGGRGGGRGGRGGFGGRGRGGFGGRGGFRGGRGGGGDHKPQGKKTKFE

B1: human fibrillarin (His-tag fusion protein) (natural protein)
chain: MKPGFSPRGGGFGGRGGFGDRGGRGGRGGFGGGRGRGGGFRGRGRGGGGGGGGGGGGGRGGGGFHSGGNRGRGRGGKRGNQSGKNVMVEPHRHEGVFICRGKEDALVTKNLVPGESVYGEKRVSISEGDDKIEYRAWNPFRSKLAAAILGGVDQIHIKPGAKVLYLGAASGTTVSHVSDIVGPDGLVYAVEFSHRSGRDLINLAKKRTNIIPVIEDARHPHKYRMLIAMVDVIFADVAQPDQTRIVALNAHTFLRNGGHFVISIKANCIDSTASAEAVFASEVKKMQQENMKPQEQLTLEPYERDHAVVVGVYRPPPKVKN
As for B1, the dissociation constant Kd in assay [1] amounted to 10 nM; in assay [2] it was 2.78 nM.
